{"source": "patent EP4725965A1", "about": "(Sunshine Guojian Pharmaceutical (Shanghai) Co., Ltd., dated 2026)", "molecules": {"B1": {"name": "23C10A6B5 (antibody, V domains shown)", "VH": "QVQLQQPGADLVKPGASVMMSCKASGYTFTSYIIHWVKQTPGQGLEWIGTIYPGNGDTSYNQKFKGKATLTADKSSSTAYMQLSSLTSEDSAVYYCARMGDNEYFDYWGQGTTLTVSS", "VL": "DIQMTQSPASLSASVGETVTITCRASGNIHNYLAWYQQKQGKSPQLLVYDAETLADGVPSRFSGSGSGTQYSLNINSLQPEDFGSFYCQHFWSTPYTFGGGTKLEIK", "notes": "Murine monoclonal antibody from hybridoma; also called hybridoma clone 23C10A6B5"}, "B2": {"name": "humanized antibody 230 (antibody, V domains shown)", "VH": "QVQLVQSGAEVKKPGASVKVSCKASGYTFTSYIIHWVRQAPGQGLEWMGTIYPGNGDTSYNQKFKGRVTMTRDTSTSTVYMELSSLRSEDTAVYYCARMGDNEYFDYWGQGTLVTVSS", "VL": "DIQMTQSPSSLSASVGDRVTITCRASGNIHNYLAWYQQKPGKAPKLLLYDAETLADGVPSRFSGSGSGTDYTLTISSLQPEDFATYYCQHFWSTPYTFGGGTKVEIK", "notes": "Human IgG1 constant region and human kappa chain constant region; also called 230 antibody; parental monoclonal antibody 230"}, "B3": {"name": "antibody 237011 (antibody, human IgG1, V domains shown)", "VH": "B2 VH with I33L, N55G", "VL": "B2 VL with D56E"}, "B4": {"name": "230IL-DE (antibody, V domains shown)", "VH": "B2 VH with I33L", "VL": "B2 VL with D56E", "notes": "Linked to the constant region of the IgG1 subtype"}, "B5": {"name": "230-N55A (antibody, V domains shown)", "VH": "B2 VH with N55A", "VL": "B2 VL", "notes": "Single-point mutant of humanized antibody 230 (human IgG1/kappa)"}, "B6": {"name": "antibody 230 mutant with light chain CDR2 DAETLAD changed to DAETLAE (antibody, V domains shown)", "VH": "B2 VH", "VL": "B2 VL with D56E", "notes": "Single-point mutant of humanized antibody 230; also called 230 antibody-DE"}, "B7": {"name": "230NR-DI (antibody, V domains shown)", "VH": "B2 VH with N55R", "VL": "B2 VL with D56I", "notes": "as for B4"}, "B8": {"name": "230-N55S (antibody, V domains shown)", "VH": "B2 VH with N55S", "VL": "B2 VL", "notes": "as for B5"}, "B9": {"name": "230IL-NR-DI (antibody, V domains shown)", "VH": "B2 VH with I33L, N55R", "VL": "B2 VL with D56I", "notes": "as for B4"}, "B10": {"name": "antibody 2391 (antibody, human IgG1, V domains shown)", "VH": "B2 VH with N55G", "VL": "B2 VL with D56E"}, "B11": {"name": "230IL-DI (antibody, V domains shown)", "VH": "B2 VH with I33L", "VL": "B2 VL with D56I", "notes": "as for B4"}, "B12": {"name": "230-N55G (antibody, V domains shown)", "VH": "B2 VH with N55G", "VL": "B2 VL", "notes": "as for B5"}, "B13": {"name": "230-N55R (antibody, V domains shown)", "VH": "B2 VH with N55R", "VL": "B2 VL", "notes": "as for B5"}, "B14": {"name": "antibody 230 mutant with light chain CDR2 DAETLAD changed to DAETLAI (antibody, V domains shown)", "VH": "B2 VH", "VL": "B2 VL with D56I", "notes": "Single-point mutant of humanized antibody 230; also called 230 antibody-DI"}, "B15": {"name": "230NR-DE (antibody, V domains shown)", "VH": "B2 VH with N55R", "VL": "B2 VL with D56E", "notes": "as for B4"}, "B16": {"name": "230-I33L (antibody, V domains shown)", "VH": "B2 VH with I33L", "VL": "B2 VL", "notes": "as for B5"}, "B17": {"name": "230NG-DI (antibody, V domains shown)", "VH": "B2 VH with N55G", "VL": "B2 VL with D56I", "notes": "as for B4"}, "B18": {"name": "230IL-NR-DE (antibody, V domains shown)", "VH": "B2 VH with I33L, N55R", "VL": "B2 VL with D56E", "notes": "as for B4"}, "B19": {"name": "230IL-NG-DI (antibody, V domains shown)", "VH": "B2 VH with I33L, N55G", "VL": "B2 VL with D56I", "notes": "as for B4"}}, "key": {"[1]": {"molecular_target": "T1, human BDCA2-his protein (human, UniProt Q8WTT0 45-213)", "T1 construct": "also called BDCA2-his antigen protein", "T1 sequence": "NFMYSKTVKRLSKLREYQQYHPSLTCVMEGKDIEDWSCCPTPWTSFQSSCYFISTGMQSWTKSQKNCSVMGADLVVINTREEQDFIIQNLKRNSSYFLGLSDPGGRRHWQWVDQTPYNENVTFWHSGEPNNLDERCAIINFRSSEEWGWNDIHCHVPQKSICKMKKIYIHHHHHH", "assay": "SPR, Biacore 8K, antibody captured on Protein A chip, BDCA2-his as analyte"}, "[2]": {"molecular_target": "T2, human BDCA2-Fc protein (human, UniProt Q8WTT0 45-213)", "T2 sequence": "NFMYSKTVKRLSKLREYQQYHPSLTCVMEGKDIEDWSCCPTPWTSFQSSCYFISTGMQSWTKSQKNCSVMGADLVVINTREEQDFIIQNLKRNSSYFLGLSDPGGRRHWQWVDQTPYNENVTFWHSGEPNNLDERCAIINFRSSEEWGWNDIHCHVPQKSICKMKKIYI", "assay": "ELISA, BDCA2-Fc coated at 1 ug/mL"}, "[3]": {"molecular_target": "human BDCA2 on cells (293FT-BDCA2 stable transfectant) (human) (UniProt Q8WTT0)", "assay": "flow cytometry (FACS) on 293FT-BDCA2 cells"}, "[4]": {"molecular_target": "human BDCA2 on cells (293FT-BDCA2 stable transfectant) (human) (UniProt Q8WTT0)", "assay": "flow cytometry (FACS) on 293FT-BDCA2 cells", "remark": "listed apart in the source"}, "[5]": {"molecular_target": "T3, human BDCA2 on cells (293FT-BDCA2 stable transfectant) (human, UniProt Q8WTT0 1-213)", "T3 construct": "whole, on cells; Also used here as the target for the PBMC assays, where native BDCA2 stands on pDCs; also called CLEC4C", "T3 sequence (looked up)": "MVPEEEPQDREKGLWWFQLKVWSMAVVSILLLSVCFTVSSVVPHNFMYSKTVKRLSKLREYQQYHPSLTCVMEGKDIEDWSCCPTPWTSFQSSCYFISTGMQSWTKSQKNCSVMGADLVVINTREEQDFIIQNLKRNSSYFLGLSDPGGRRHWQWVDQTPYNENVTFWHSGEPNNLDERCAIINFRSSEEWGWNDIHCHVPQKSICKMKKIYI", "assay": "flow cytometry (FACS) on 293FT-BDCA2 cells"}, "[6]": {"molecular_target": "T1, human BDCA2-his protein", "assay": "ELISA, BDCA2-his coated at 0.1 ug/mL, anti-human Fc HRP"}}, "note": "Changes are numbered by the printed parent chain. Read-outs that look alike come from different tables or passages of the source."}
{"molecule": "positive control antibody Litifilimab (BIIB059, 24F4A)", "values": [{"measurement": "Kd", "setting": "[1]", "value": 87, "unit": "pM"}, {"measurement": "koff", "setting": "[1]", "value": 0.000121, "unit": "s⁻¹"}, {"measurement": "kon", "setting": "[1]", "value": "1.39e+06", "unit": "M⁻¹ s⁻¹"}, {"measurement": "EC50", "setting": "[2]", "value": 0.0346, "unit": "µg/mL"}, {"measurement": "EC50", "setting": "[2]; record 2", "value": 0.0463, "unit": "µg/mL"}, {"measurement": "EC50", "setting": "[3]", "value": 0.124, "unit": "µg/mL"}, {"measurement": "EC50", "setting": "[4]", "value": 0.103, "unit": "µg/mL"}]}
{"molecule": "B1", "values": [{"measurement": "EC50", "setting": "[2]", "value": 0.0201, "unit": "µg/mL"}, {"measurement": "EC50", "setting": "[5]", "value": 0.0835, "unit": "µg/mL"}]}
{"molecule": "B2", "values": [{"measurement": "Kd", "setting": "[1]", "value": 76.8, "unit": "pM"}, {"measurement": "koff", "setting": "[1]", "value": 0.00131, "unit": "s⁻¹"}, {"measurement": "kon", "setting": "[1]", "value": "1.7e+07", "unit": "M⁻¹ s⁻¹"}]}
{"molecule": "B3", "values": [{"measurement": "Kd", "setting": "[1]", "value": 25.9, "unit": "pM"}, {"measurement": "koff", "setting": "[1]", "value": 0.000652, "unit": "s⁻¹"}, {"measurement": "kon", "setting": "[1]", "value": "2.52e+07", "unit": "M⁻¹ s⁻¹"}]}
{"molecule": "B4", "values": [{"measurement": "binding result", "setting": "[6]", "value": "binds"}]}
{"molecule": "B5", "values": [{"measurement": "binding result", "setting": "[6]", "value": "binds"}]}
{"molecule": "B6", "values": [{"measurement": "binding result", "setting": "[6]", "value": "binds"}]}
{"molecule": "B7", "values": [{"measurement": "binding result", "setting": "[6]", "value": "binds"}]}
{"molecule": "B8", "values": [{"measurement": "binding result", "setting": "[6]", "value": "binds"}]}
{"molecule": "B9", "values": [{"measurement": "binding result", "setting": "[6]", "value": "binds"}]}
{"molecule": "B10", "values": [{"measurement": "Kd", "setting": "[1]", "value": 35.7, "unit": "pM"}, {"measurement": "koff", "setting": "[1]", "value": 0.000874, "unit": "s⁻¹"}, {"measurement": "kon", "setting": "[1]", "value": "2.44e+07", "unit": "M⁻¹ s⁻¹"}]}
{"molecule": "B11", "values": [{"measurement": "binding result", "setting": "[6]", "value": "binds"}]}
{"molecule": "B12", "values": [{"measurement": "binding result", "setting": "[6]", "value": "binds"}]}
{"molecule": "B13", "values": [{"measurement": "binding result", "setting": "[6]", "value": "binds"}]}
{"molecule": "B14", "values": [{"measurement": "binding result", "setting": "[6]", "value": "binds"}]}
{"molecule": "B15", "values": [{"measurement": "binding result", "setting": "[6]", "value": "binds"}]}
{"molecule": "B16", "values": [{"measurement": "binding result", "setting": "[6]", "value": "binds"}]}
{"molecule": "B17", "values": [{"measurement": "binding result", "setting": "[6]", "value": "binds"}]}
{"molecule": "B18", "values": [{"measurement": "binding result", "setting": "[6]", "value": "binds"}]}
{"molecule": "B19", "values": [{"measurement": "binding result", "setting": "[6]", "value": "binds"}]}
